Measurements as given in patent US20240239886A1 (YEDA RESEARCH AND DEVELOPMENT, published 2024).

T1: recombinant protein consisting of the extracellular domain of human TREM2 fused to the His tag (human, UniProt Q9NZC2 19-174)
T1 construct: also called His tagged hTREM2; His-TREM2
T1 sequence: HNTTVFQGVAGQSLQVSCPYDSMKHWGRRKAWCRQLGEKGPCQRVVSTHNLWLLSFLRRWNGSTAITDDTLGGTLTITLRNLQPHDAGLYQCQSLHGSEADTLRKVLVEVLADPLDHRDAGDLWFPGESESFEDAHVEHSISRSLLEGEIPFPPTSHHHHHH

T2: human TREM2 (hTREM2) on cells (human, UniProt Q9NZC2 19-230)
T2 construct: also called hTREM2 expressing HEK293
T2 sequence: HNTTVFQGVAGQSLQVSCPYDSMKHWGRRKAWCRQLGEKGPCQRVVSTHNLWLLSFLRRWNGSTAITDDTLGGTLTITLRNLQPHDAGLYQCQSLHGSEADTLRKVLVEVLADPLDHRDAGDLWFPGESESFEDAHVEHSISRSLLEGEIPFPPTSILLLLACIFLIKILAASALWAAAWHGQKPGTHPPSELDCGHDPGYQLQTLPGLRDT

T3: recombinant protein consisting of the extracellular domain of human TREM2 fused to the His tag (UniProt Q9NZC2 19-174)
T3 chain: T1 sequence

T4: soluble TREM2 protein (human, UniProt Q9NZC2 19-157)
T4 construct: also called TREM2 in cell culture supernatant (Sup)
T4 sequence: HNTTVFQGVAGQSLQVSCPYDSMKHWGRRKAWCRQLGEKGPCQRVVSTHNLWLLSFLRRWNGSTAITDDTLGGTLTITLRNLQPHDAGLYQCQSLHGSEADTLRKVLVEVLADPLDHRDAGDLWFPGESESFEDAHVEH

B1: 60H4A3 (antibody, V domains shown)
VH: EVQLQESGPELVKPGASVKMSCKASGYTFTDYNMHWVKQSHGKSLEWIGYIYPNNGGTGYNQKFKGKATLTVNKSSSTAYMELRSLTSEDSAVYYCARSGRGFAYWGQGTLVTVSA
VL: DIVMTQSPASLSVTPGDRVSLSCRASQSISDYLHWYQQKSHESPRLLIKYASQSISGIPSRFSGSGSGSDFTLSINSVEPEDVGVYYCQNGHSFPYTFGGGTKLEIK
notes: Biotin conjugated in sup ELISA, cell-based ELISA and flow cytometry
B2: 60H4G2 (antibody, V domains shown)
VH: B1 VH
VL: DIVMTQSTSSLTVTAGEKVTMSCKSSQSLLNSGNQKNYLTWYQQKPGQPPKLLIYWASSRESGVPDRFTGRGSGTDFTLTISSVQAEDLAVYYCQNDYSYPFTFGSGTKLEIK
notes: as for B1
B3: 83E10B12 (antibody, V domains shown)
VH: QVQLQESGPELVKPGASVKISCKASGYIFSYSWMNWVKQRPGKGLEWIGRIYPGDGDADYNGKFKGKATLTADKSSNTAYMQLTSLTSEDSAVYFCARLHIYDGYYVSVYWGQGTLVTVSA
VL: DIQMTQTTSCLSASLGDRVTISCRASQDINNYLSWYQQKPDGTVKLLIYYTSKLHSGVPSRFSGSGSGTDYSLTIGNLEQEDVATYFCQQGDTLPWTFGGGTRLEIK
notes: as for B1
B4: 80E3C7 (antibody, V domains shown)
VH: QVQLQQPGAEPLKPGASVKMSCEASGYTFTNFWITWMKLRPGQGLEWIGDIYPGTGNTNYNEKFKSRATLTVDTSSTTAYMQLSSLTSEDSAVYYCAREAYYTNPGFAYWGHGTLVTVSA
VL: DVLMTQSPLSLPVNLGDQASISCKSSQNIVHSNGNTYLEWYLQRPGQSPKLLIYKVSNRFSGVPDRFSGSGSGTDFTLKISRVEAEDLGVYYCFQGSHVPYTFGGGTKLEIK
notes: Biotin conjugated in sup ELISA, cell-based ELISA and flow cytometry; also called anti-TREM2 antibody (E3C7); TREM2 Ab E3C7
B5: 61B11C9 (antibody, V domains shown)
VH: QLQESGPEQVKPGASVKMSCRTSGYTFTAYNMHWVKQRLGKSLEWIGYIRPTNGDTRYNRRFRDKATLTVDKSSSTTYMELRSLTSEDSAVYYCTRSTTVASFDYWGQGTTLTVSS
VL: DIVMTQTTSSLTVSVGQKITLNCKSSQSLLYTNNQKNFLAWYQQKPGQSPKLLIYWASTRDSGVPDRFTGSGSGTDFTLTITSVMAEDLAVYFCQQYYDFPPTFGGGTKLEIK
notes: as for B1

The binders below were run against T1, recombinant protein consisting of the … (assay: direct ELISA).
Experimental: (§1) Ninety six-Well ELISA microplate was coated with 0.5 μg/mL, 100 μl/well His tagged hTREM2 diluted in PBS pH 7.4, and incubated at 4° C. overnight. The plate was rinsed three times with 0.05% tween20 in PBS, blocked with 1% BSA in PBS at room temperature (RT) for 1 hr, and rinsed again. The plates was incubated with the anti hTREM2 antibodies (100 μl/well) for 2 hrs at indicated concentration, at RT. Plate was rinsed and incubated with Peroxidase-AffiniPure Goat anti Mouse IgG, Fcg fragment specific (min X Hu, Bov, Hrs, Sr Prot; Jackson ImmunoResearch) for 20 min at RT. The plate was rinsed and incubated with TMB Reagent (TM4500, Scytek) for 20 min at RT, followed by the addition of Stop Solution 2N Sulfuric Acid (DY994, R&D). OD was measured using an ELISA plate reader at dual wavelengths (450 nm and 570 nm)

In order of falling “direct ELISA positive/negative” value:
1. B5  35.1 ratio
2. B3  34.8 ratio
3. B4  33.4 ratio
4. B1  31.5 ratio
5. B2  27.4 ratio

These binders were tested against T2, human TREM2 (hTREM2) on cells (assay: flow cytometry on BMDM).
Experimental: TREM2 KO and hTREM2 BMDM were washed with MACS buffer (PBS pH 7.2, 0.5% BSA and 2 mM EDTA) and stained with biotin conjugated anti hTREM2 antibodies (10 μg/mL) followed by Washing with MACS buffer and APC-streptavidin (Biolegend, 405207) incubation, then analyzed by flow cytometer (LSRII, BD).

In order of falling “FACS positive/negative BMDM” value:
1. B3  2.58 ratio
2. B4  1.87 ratio
3. B1  1.78 ratio
4. B5  1.47 ratio
5. B2  1.16 ratio

Target: T3, recombinant protein consisting of the …
Assay: SPR

In order of rising Kd:
1. B4  0.0275 pM
2. B3  32.1 pM

Each binder was assayed against T4, soluble TREM2 protein (assay: sup ELISA, hTREM2 vs WT 293HEK supernatant).
Experimental: Supernatant was collected, centrifuged for 5 min at 900 g and filtered (0.45 μm). Ninety six-well ELISA microplate was coated with 0.2 μg/well of anti human TREM2 Antibody (AF1828, R&D) diluted in PBS, and incubated at 4° C. overnight. The plate was rinsed three times with 0.05% tween20 in PBS, blocked with 1% BSA in PBS at room temperature (RT) for 1 hr, and rinsed again. The plates was incubated with the cell culture supernatant (100 μl/well) for 2 hrs at RT for and rinsed again. The plate was incubated with 0.1 μg biotinylayed anti hTREM2 antibodies for 2 hrs at RT. After incubation, the plate was rinsed and incubated with streptavidin-HRP (DY998, R&D) for 20 min at RT. The plate was rinsed and incubated with TMB Reagent (TM4500, Scytek) for 20 min at RT, followed by the addition of Stop Solution 2N Sulfuric Acid (DY994, R&D). OD was measured using an ELISA plate reader at dual wavelengths (450 nm and 570 nm)
(§2) A. Cells culture supernatant (Sup) was used for soluble TREM2 protein binding capability test of 18 hybridoma derived monoclonal antibodies by direct ELISA. B. Cells were captured in 96 wells plate and were used for cell based ELISA of 18 hybridoma derived monoclonal antibodies. OD values positive cells (hTREM2 expressing HEK293) and negative cells (WT HEK293) are showing in the table.

In order of rising “sup ELISA positive/negative (293HEK)” value:
1. B5  3.05 ratio
2. B2  10 ratio
3. B1  11 ratio
4. B4  24.9 ratio
5. B3  27.9 ratio

These binders were tested against T2, human TREM2 (hTREM2) on cells (assay: cell-based ELISA, hTREM2 vs WT 293HEK cells).
Experimental: Cells were washed three times with PBS and blocked (5% FBS, 1% BSA in PBS) for 2 hrs at RT. Cells were washed with 1% BSA in PBS and were incubated with 0.1 ug (or indicated amount) obiotinylayed anti hTREM2 antibodies for 4 hrs at RT. After incubation, cells were incubated with streptavidin-HRP (DY998, R&D) for 20 min at RT. The cells were washed and incubated with TMB Reagent (TM4500, Scytek) for 30 min at RT, followed by the addition of Stop Solution 2N Sulfuric Acid (DY994, R&D). OD was measured using an ELISA plate reader at dual wavelengths (450 nm and 570 nm). Biotinylation of Antibodies was done using EZ-Link™ Sulfo-NHS-LC-Biotinylation kit (Thermo Fisher Scientific) according to manufacturer's instructions.
as §2

In order of rising “Cell based ELISA positive/negative” value:
1. B2  1.38 ratio
2. B1  1.89 ratio
3. B3  1.91 ratio
4. B5  2.46 ratio
5. B4  2.8 ratio

These binders were tested against T1, recombinant protein consisting of the … (assay: direct ELISA; highest dilution with S/B >= 2.1).
Experimental: as §1
(§3) Purity is measured by SDS-PAGE. Quantity of endotoxin (EU/mg) is measured by LAL assay. Titer measured by direct ELISA, while the title value is the highest dilution with S/B (Signal/Blank) >= 2.1

In order of rising Titer:
1. B3  243000 dilution
2. B2  729000 dilution
3. B1  2.19e+06 dilution
4. B4  2.19e+06 dilution
5. B5  2.19e+06 dilution

Target: T1, recombinant protein consisting of the …
Assay: direct ELISA; highest dilution with S/B >= 2.1
Remark: another data set of the same source
Experimental: as §1, §3

In order of rising Titer:
1. B3  243000 dilution
2. B2  729000 dilution
3. B1  2.19e+06 dilution
4. B4  2.19e+06 dilution
5. B5  2.19e+06 dilution

These binders were tested against T1, recombinant protein consisting of the … (assay: direct ELISA, coated His-TREM2 0.5 ug/mL, Ab stock 1 mg/mL).
Experimental: as §1

In order of rising “OD at dilution 1000” value:
1. B2  1.83 OD
2. B1  1.84 OD
3. B4  2.02 OD
4. B3  2.59 OD
5. B5  2.75 OD

In order of rising “OD at dilution 3000” value:
1. B1  1.8 OD
2. B2  1.89 OD
3. B4  2.12 OD
4. B3  2.49 OD
5. B5  2.76 OD

In order of rising “OD at dilution 9000” value:
1. B2  1.69 OD
2. B1  1.9 OD
3. B3  1.98 OD
4. B4  2.16 OD
5. B5  2.88 OD

In order of rising “OD at dilution 27000” value:
1. B3  0.843 OD
2. B2  1.31 OD
3. B1  1.63 OD
4. B4  1.76 OD
5. B5  2.58 OD

In order of rising “OD at dilution 81000” value:
1. B3  0.375 OD
2. B2  0.849 OD
3. B1  1.16 OD
4. B4  1.2 OD
5. B5  1.92 OD

In order of rising “OD at dilution 243000” value:
1. B3  0.179 OD
2. B2  0.432 OD
3. B4  0.608 OD
4. B1  0.763 OD
5. B5  0.985 OD

In order of rising “OD at dilution 729000” value:
1. B3  0.099 OD
2. B2  0.222 OD
3. B4  0.281 OD
4. B1  0.322 OD
5. B5  0.405 OD

In order of rising “OD at dilution 2187000” value:
1. B3  0.068 OD
2. B2  0.133 OD
3. B4  0.145 OD
4. B5  0.169 OD
5. B1  0.17 OD

In order of rising “OD at dilution 6561000” value:
1. B3  0.07 OD
2. B4  0.092 OD
3. B5  0.099 OD
4. B2  0.102 OD
5. B1  0.113 OD

In order of falling “OD at dilution 19683000” value:
1. B4  0.085 OD
2. B2  0.067 OD
3. B5  0.066 OD
4. B1  0.063 OD
5. B3  0.053 OD
